Data from article PMC6403256, “ABHD5 blunts the sensitivity of colorectal cancer to fluorouracil via promoting autophagic uracil yield” (Nature Communications, 2019).

Assays:
Details in all cases: both partners purified
[1] = target: T1, PDIA5 on the HuProt human protein chip (human, UniProt Q14554 22-519); assay: peptide or protein array; human ABHD5 recombinant protein used to probe the HuProt human protein chip
T1 construct: PDIA5, human, as spotted on the HuProt human protein chip; source: spotted on the HuProt human protein chip
T1 sequence (looked up): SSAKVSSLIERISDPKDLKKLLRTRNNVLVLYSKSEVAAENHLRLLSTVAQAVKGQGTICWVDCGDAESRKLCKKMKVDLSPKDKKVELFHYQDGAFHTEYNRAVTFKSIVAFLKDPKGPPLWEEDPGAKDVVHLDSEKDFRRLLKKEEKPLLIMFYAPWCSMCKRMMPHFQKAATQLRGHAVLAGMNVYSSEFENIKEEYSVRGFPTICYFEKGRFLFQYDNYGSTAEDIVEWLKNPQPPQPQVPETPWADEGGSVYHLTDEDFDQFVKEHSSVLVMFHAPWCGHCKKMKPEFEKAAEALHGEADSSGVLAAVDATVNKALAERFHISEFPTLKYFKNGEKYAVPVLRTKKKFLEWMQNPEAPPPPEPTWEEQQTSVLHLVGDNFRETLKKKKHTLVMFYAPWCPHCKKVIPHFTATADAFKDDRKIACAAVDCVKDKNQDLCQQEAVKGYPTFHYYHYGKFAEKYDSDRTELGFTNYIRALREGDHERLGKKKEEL

[2] = target: T2, GST-tagged wild type PDIA5 (human, UniProt Q14554 22-519); assay: pull-down; Ni-NTA bead pull-down: 50 ug GST, GST-PDIA5 or mutant GST-PDIA5 with 50 ug immobilized His-ABHD5 or His-RNASET2; 20 mM Tris pH 8.0, 100 mM NaCl, 0.2% Triton X-100; 4 C, 4 h; eluates blotted with anti-GST
T2 construct: PDIA5, human, wild type; also called GST-PDIA5; wild type PDIA5 (W); source: expressed and purified; recombinant protein from Wuhan GeneCreate Biological Engineering Co., Ltd
T2 sequence (looked up): T1 sequence (looked up)

His-PDIA5 = target: T3, His-PDIA5 (human, UniProt Q14554 22-519); assay: pull-down; competitive binding: 50 ug GST-RNASET2 mixed with 0, 50, 100, 200 ug GST-ABHD5, incubated with 50 ug immobilized His-PDIA5 at 4 C for 4 h; detected by blot
T3 construct: PDIA5, human, wild type; source: recombinant protein from Wuhan GeneCreate Biological Engineering Co., Ltd
T3 sequence (looked up): T1 sequence (looked up)

B1: human ABHD5 recombinant protein (probe on the HuProt chip) (natural protein, UniProt Q8WTS1 1-349, looked up)
chain: MAAEEEEVDSADTGERSGWLTGWLPTWCPTSISHLKEAEEKMLKCVPCTYKKEPVRISNGNKIWTLKFSHNISNKTPLVLLHGFGGGLGLWALNFGDLCTNRPVYAFDLLGFGRSSRPRFDSDAEEVENQFVESIEEWRCALGLDKMILLGHNLGGFLAAAYSLKYPSRVNHLILVEPWGFPERPDLADQDRPIPVWIRALGAALTPFNPLAGLRIAGPFGLSLVQRLRPDFKRKYSSMFEDDTVTEYIYHCNVQTPSGETAFKNMTIPYGWAKRPMLQRIGKMHPDIPVSVIFGARSCIDGNSGTSIQSLRPHSYVKTIAILGAGHYVYADQPEEFNQKVKEICDTVD
notes: ABHD5, human, recombinant protein used to probe the HuProt human protein chip; The methods list two recombinant ABHD5 proteins: His-ABHD5 (Wuhan GeneCreate) and ABHD5 (Human) recombinant protein H00051099-P01 (Novus)
binding result [1]: binds

B2: His-tagged full-length ABHD5 (natural protein, human, UniProt Q8WTS1 1-349, looked up)
chain: B1 chain
notes: ABHD5, human, wild type, full length; also called His-ABHD5; source: recombinant protein from Wuhan GeneCreate Biological Engineering Co., Ltd
binding result [2]: binds

B3: GST-ABHD5 (natural protein, human, UniProt Q8WTS1 1-349, looked up)
chain: B1 chain
notes: ABHD5, human
binding result (His-PDIA5): binds
